The source of these data is IntAct's records for PubMed 17167415.

To fix the notation:
B1: DNA replication regulator SLD3 (Saccharomyces cerevisiae), P53135 (parent)
chain: METWEVIASVKEATKGLDLSLDHPLIIKSEDVPSNILQLLQQKNRRQLKHICMKSRKEYFLLEEYGPGFWVKWPYNYFNGYSLPERRTEVVTTVERERAKRETLKTWDELKFKELLHLWSEEPKGSCKLEKDKDLKLDMNPPDMKGESKINDYYSDPKEYIESKYYDALFSIHTPLAYFVKSNLVRLKNTCRTKYGSDSYKIAYQAMLQKFLLSIVQFKDRHDNRLLLEPFSSPIADEKRKNCLTKFVIQDENKNSSTIADLCVVLKSREIKLQILLLLEIIGLNDLDWNFRDFEKKYKLKLKKRSLNLTKKGLVRRRSKKKTSEKDKGIERITTSLDYCEQLDLYLDRACILDILLSSETPNPDAIEASNGTIQEHKKNILDKSKEASLVGFINYVLIPYFNKKVPHAVEFIIQKLKGPSMRPKRALKKVNDSTNVSSPNTVETYNRLSTSQRASRSSIINSVPSSPALRRVDANLFSRKSIASPTPELLNSRTNSNLNEFLESETRSLKRPSQLGRTKSDLTMNHLQKRQFSVSDLSTTRVPNSSTITLKTPFSHSTINAYKTMNNSFRRVGKRKDINETIRLHERVDSEENVQVQATPAVKKRTVTPNKKAQLQSIIESPLNFKDDDTHEGRKNTSNITSTPTNKPPENSSKRRVRRRLFAPEST
partner: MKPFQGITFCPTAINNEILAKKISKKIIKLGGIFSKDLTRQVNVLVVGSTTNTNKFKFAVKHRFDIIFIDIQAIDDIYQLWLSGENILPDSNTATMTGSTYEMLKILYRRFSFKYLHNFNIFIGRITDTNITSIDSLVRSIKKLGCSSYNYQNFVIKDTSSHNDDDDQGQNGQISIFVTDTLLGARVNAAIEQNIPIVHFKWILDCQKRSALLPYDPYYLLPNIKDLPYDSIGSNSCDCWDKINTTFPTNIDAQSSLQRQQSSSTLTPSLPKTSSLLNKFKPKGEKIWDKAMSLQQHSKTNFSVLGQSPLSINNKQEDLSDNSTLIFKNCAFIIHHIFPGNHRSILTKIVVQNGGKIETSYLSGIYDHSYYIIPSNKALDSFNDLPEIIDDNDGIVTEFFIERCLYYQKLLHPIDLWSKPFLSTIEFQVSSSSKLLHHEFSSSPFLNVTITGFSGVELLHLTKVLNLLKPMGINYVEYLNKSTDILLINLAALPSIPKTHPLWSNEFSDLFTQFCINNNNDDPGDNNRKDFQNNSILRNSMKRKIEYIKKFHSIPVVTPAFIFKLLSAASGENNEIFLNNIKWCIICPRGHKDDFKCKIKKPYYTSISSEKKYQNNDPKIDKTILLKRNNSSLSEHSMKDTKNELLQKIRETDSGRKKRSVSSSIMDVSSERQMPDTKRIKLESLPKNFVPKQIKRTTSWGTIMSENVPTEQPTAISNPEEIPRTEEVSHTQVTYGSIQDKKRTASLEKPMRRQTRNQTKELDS

This assay covers variants of B1. Conditions: with dpb11_yeast DPB11, P47027.
T600A;S622A: the “effect of a mutation on the interaction” value was “disrupting interaction strength”.
